The record followed here is the supplement of paper PMC7877785.

The data set in a line: self-splicing fitness, log relative to wild type (ln ratio); higher = more splicing; Tetrahymena group I intron in knt gene, E. coli kanamycin selection, DiMSum; sequences stand for … in CUCUCU…GGAGGGAAAAGUUAUCAGGCAUGCACCUGGUAGCUAGUCUUUAAACCAAUAGAUUGCAUCGGUUUAAAAGGCAAGACCGUCAAAUUGCGGGAAAGGGGUCAACAGCCGUUCAGUACCAAGUCUCAGGGGAAACUUUGAGAUGGCCUUGCAAAGGGUAUGGUAAUAAGCUGACGGACAUGGUCCUAACCACGCAGCCAAGUCCUAAGUCAACAGAUCUUCUGUUGAUAUGGAUGCAGUUCACAGACUAAAUGUCGGUCGGGGAAGAUGUAUUCUUCUCAUAAGAUAUAGUCGGACCUCUCCUUAAUGGGAGCUAGCGGAUGAAGUGAUGCAACACUGGAGCCGCUGGGAACUAAUUUGUAUGCGAAAGUAUAUUGAUUAGUUUUGGAGUACUCGUGGUCG
In a few lines: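 Colonies from six replicate transformations of E. coli BL21(DE3) were pooled and amplicon-sequenced on an Illumina HiSeq 2500. The library placed an intron with all eight P1ex-region nucleotides randomised inside the knt kanamycin-resistance gene on pET-22b(+), and cells grew overnight at 37°C or 30°C on LB agar with or without 25 μg/mL kanamycin (plus 100 μg/mL carbenicillin, 50 μM IPTG, 0.2% rhamnose). Fitness is the DiMSum error-weighted combination of wild-type-normalised replicate fold changes, kanamycin versus none.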

± gives the uncertainty stated by the source.

For the sequence UGCUAGCAAUAUUACGCCGG, the “self-splicing fitness (ln)” value was -0.985 ± 0.22 (30 °C) and -1.88 ± 0.5 (37 °C).
The like results for UGCUAGCAAUAUUACGCGAG were, in that order, -4.4 ± 0.39 and -2.11 ± 0.31.
On to UGCUAGCAAUAUUACGCGUA, for which the “self-splicing fitness (ln)” value is -0.838 ± 0.11 (30 °C) and -0.531 ± 0.1 (37 °C).
As to UGCUAGCAAUAUUACGCGUG, the “self-splicing fitness (ln)” value reads like this: (30 °C) -0.934 ± 0.074; (37 °C) -0.462 ± 0.082.
For the sequence UGCUAGCAAUAUUACGCUAU, the “self-splicing fitness (ln)” value is, setting by setting: (30 °C) -2.75 ± 0.21; (37 °C) -0.801 ± 0.12.
On to UGCUAGCAAUAUUACGGAUG, for which the “self-splicing fitness (ln)” value by setting is: (30 °C) -0.534 ± 0.086; (37 °C) -0.268 ± 0.1.
The like results for UGCUAGCAAUAUUACGGCCG were, in that order, -0.359 ± 0.12 and 0.337 ± 0.14.
UGCUAGCAAUAUUACGGUAC: under “37 °C”, the “self-splicing fitness (ln)” value was -0.887 ± 0.39.
For the sequence UGCUAGCAAUAUUACGUAAU, the “self-splicing fitness (ln)” value is, setting by setting: (30 °C) -2.42 ± 0.11; (37 °C) -1.34 ± 0.13.
The like results for UGCUAGCAAUAUUACGUCCG were, in that order, -0.00657 ± 0.11 and 0.18 ± 0.14.
The corresponding values for UGCUAGCAAUAUUACGUCUA are -1.21 ± 0.11 and -0.84 ± 0.1.
For the sequence UGCUAGCAAUAUUACGUGCC, the “self-splicing fitness (ln)” value (37 °C) is -0.724 ± 0.3.
Regarding UGCUAGCAAUAUUACGUUAG, the “self-splicing fitness (ln)” value (30 °C) is -3.08 ± 0.19 and the “self-splicing fitness (ln)” value (37 °C) is -3.02 ± 0.33.
With UGGAAGCAAUAUUACGAAAU, the “self-splicing fitness (ln)” value (30 °C) was -3.52 ± 0.29 and the “self-splicing fitness (ln)” value (37 °C) was -2.27 ± 0.22.
Consider UGGAAGCAAUAUUACGAAGU, for which the “self-splicing fitness (ln)” value (30 °C) is -3.57 ± 0.35.
As for UGGAAGCAAUAUUACGACUG, the “self-splicing fitness (ln)” value is, setting by setting: (30 °C) -1.26 ± 0.24; (37 °C) -0.683 ± 0.24.
With UGGAAGCAAUAUUACGAUCC, the “self-splicing fitness (ln)” value is -2.44 ± 0.47 (30 °C) and -2.1 ± 0.41 (37 °C).
UGGAAGCAAUAUUACGAUGG: the “self-splicing fitness (ln)” value was -2.38 ± 0.14 (30 °C) and -0.0527 ± 0.12 (37 °C).
The like results for UGGAAGCAAUAUUACGCACA were, in that order, -1.44 ± 0.2 and 0.0258 ± 0.2.
The corresponding values for UGGAAGCAAUAUUACGCAGG are -3.1 ± 0.42 and -1.47 ± 0.4.
The corresponding values for UGGAAGCAAUAUUACGCCUA are 0.049 ± 0.092 and -0.109 ± 0.12.
Turning to UGGAAGCAAUAUUACGCGGU, the “self-splicing fitness (ln)” value was -2.87 ± 0.17 (30 °C) and -2.69 ± 0.2 (37 °C).
As to UGGAAGCAAUAUUACGGACC, the “self-splicing fitness (ln)” value was -0.695 ± 0.088 (30 °C) and -0.372 ± 0.11 (37 °C).
On to UGGAAGCAAUAUUACGGAGG, for which the “self-splicing fitness (ln)” value was -2.93 ± 0.27 (30 °C) and -0.696 ± 0.15 (37 °C).
Regarding UGGAAGCAAUAUUACGGAUU, the “self-splicing fitness (ln)” value runs as follows: (30 °C) -1.49 ± 0.08; (37 °C) -1.68 ± 0.12.
The like results for UGGAAGCAAUAUUACGUAAA were, in that order, -2.28 ± 0.21 and 0.0471 ± 0.21.
Take UGGAAGCAAUAUUACGUCUC: for the setting “37 °C”, the “self-splicing fitness (ln)” value was -2.47 ± 0.32.
With UGGAAGCAAUAUUACGUGCG, the “self-splicing fitness (ln)” value was -0.442 ± 0.054 (30 °C) and 0.0701 ± 0.075 (37 °C).
The like results for UGGAAGCAAUAUUACGUGGA were, in that order, -2.88 ± 0.16 and -0.926 ± 0.12.
The like results for UGGAAGCAAUAUUACGUUUA were, in that order, -0.859 ± 0.072 and -0.47 ± 0.086.
In the case of UGGCAGCAAUAUUACGAAAC, where the note is “37 °C”, the “self-splicing fitness (ln)” value is -1.52 ± 0.32.
Consider UGGCAGCAAUAUUACGAAUG, for which the “self-splicing fitness (ln)” value runs as follows: (30 °C) -0.811 ± 0.061; (37 °C) 0.188 ± 0.079.
The like results for UGGCAGCAAUAUUACGACAA were, in that order, -0.602 ± 0.14 and -0.308 ± 0.16.
The corresponding values for UGGCAGCAAUAUUACGAGAA are -1.11 ± 0.32 and -1.62 ± 0.31.
The like results for UGGCAGCAAUAUUACGAGCG were, in that order, -0.577 ± 0.12 and 0.0222 ± 0.17.
On to UGGCAGCAAUAUUACGAGCU, for which the “self-splicing fitness (ln)” value is, setting by setting: (30 °C) -1.98 ± 0.16; (37 °C) -1.91 ± 0.19.
The like results for UGGCAGCAAUAUUACGAGGG were, in that order, -3.44 ± 0.23 and -2.73 ± 0.25.
With UGGCAGCAAUAUUACGAGUC, the “self-splicing fitness (ln)” value by setting is: (30 °C) -2.79 ± 0.17; (37 °C) -3.11 ± 0.23.
The corresponding values for UGGCAGCAAUAUUACGCCCC are -1.11 ± 0.29 and -0.487 ± 0.36.
With UGGCAGCAAUAUUACGCGCU, the “self-splicing fitness (ln)” value (37 °C) was -2.45 ± 0.49.
For the sequence UGGCAGCAAUAUUACGCUCG, the “self-splicing fitness (ln)” value is -0.792 ± 0.083 (30 °C) and -0.0749 ± 0.11 (37 °C).
The corresponding values for UGGCAGCAAUAUUACGCUUG are -2.46 ± 0.12 and -0.728 ± 0.15.
The like results for UGGCAGCAAUAUUACGGAGG were, in that order, -2.38 ± 0.12 and -1.87 ± 0.15.
As to UGGCAGCAAUAUUACGGAUG, the “self-splicing fitness (ln)” value reads like this: (30 °C) -1.79 ± 0.17; (37 °C) -0.817 ± 0.19.
Consider UGGCAGCAAUAUUACGGGGA, for which the “self-splicing fitness (ln)” value was -2.26 ± 0.13 (30 °C) and -2.03 ± 0.14 (37 °C).
As for UGGCAGCAAUAUUACGGUGA, the “self-splicing fitness (ln)” value runs as follows: (30 °C) -0.428 ± 0.097; (37 °C) 0.214 ± 0.12.
The like results for UGGCAGCAAUAUUACGGUGG were, in that order, -0.928 ± 0.079 and -0.811 ± 0.11.
Take UGGCAGCAAUAUUACGUGAC: the “self-splicing fitness (ln)” value was -2.83 ± 0.31 (30 °C) and -1.22 ± 0.25 (37 °C).
With UGGCAGCAAUAUUACGUGCC, the “self-splicing fitness (ln)” value (37 °C) was -1.69 ± 0.26.
Consider UGGCAGCAAUAUUACGUUGU, for which the “self-splicing fitness (ln)” value is -3.71 ± 0.29 (30 °C) and -3.17 ± 0.3 (37 °C).
The corresponding values for UGGGAGCAAUAUUACGACCU are -0.992 ± 0.41 and -0.238 ± 0.46.
As to UGGGAGCAAUAUUACGACGU, the “self-splicing fitness (ln)” value reads like this: (30 °C) -2.93 ± 0.22; (37 °C) -2.37 ± 0.29.
The like results for UGGGAGCAAUAUUACGACUA were, in that order, -1.68 ± 0.35 and 0.369 ± 0.3.
In the case of UGGGAGCAAUAUUACGAGGG, the “self-splicing fitness (ln)” value (37 °C) is -1.99 ± 0.42.
For the sequence UGGGAGCAAUAUUACGCACU, the “self-splicing fitness (ln)” value (30 °C) was -3.4 ± 0.35 and the “self-splicing fitness (ln)” value (37 °C) is -1.76 ± 0.33.
For UGGGAGCAAUAUUACGCCGC, for the setting “30 °C”, the “self-splicing fitness (ln)” value is -2.27 ± 0.47.
Turning to UGGGAGCAAUAUUACGCUCG, for the setting “37 °C”, the “self-splicing fitness (ln)” value was -1.25 ± 0.46.
Take UGGGAGCAAUAUUACGGAAA: the “self-splicing fitness (ln)” value (30 °C) was -2.04 ± 0.31.
As for UGGGAGCAAUAUUACGGAUA, the “self-splicing fitness (ln)” value (30 °C) was -2.61 ± 0.32 and the “self-splicing fitness (ln)” value (37 °C) was -2.52 ± 0.32.
Consider UGGGAGCAAUAUUACGGCCA, for which the “self-splicing fitness (ln)” value was -1.58 ± 0.13 (30 °C) and -0.684 ± 0.16 (37 °C).
For the sequence UGGGAGCAAUAUUACGGGCA, the “self-splicing fitness (ln)” value runs as follows: (30 °C) -2.36 ± 0.16; (37 °C) -0.757 ± 0.16.
Take UGGGAGCAAUAUUACGGGUU: the “self-splicing fitness (ln)” value (37 °C) was -2.02 ± 0.47.
Turning to UGGGAGCAAUAUUACGUAAC, the “self-splicing fitness (ln)” value (30 °C) was -1.63 ± 0.41.
Turning to UGGGAGCAAUAUUACGUCUG, the “self-splicing fitness (ln)” value runs as follows: (30 °C) -1.46 ± 0.12; (37 °C) -0.899 ± 0.17.
For UGGGAGCAAUAUUACGUGCU, the “self-splicing fitness (ln)” value is -2.65 ± 0.32 (30 °C) and -1.05 ± 0.25 (37 °C).
The like results for UGGGAGCAAUAUUACGUGGC were, in that order, -4.39 ± 0.39 and -1.68 ± 0.23.
The like results for UGGGAGCAAUAUUACGUGUC were, in that order, -2.08 ± 0.19 and -2.59 ± 0.33.
For the sequence UGGGAGCAAUAUUACGUUGA, the “self-splicing fitness (ln)” value runs as follows: (30 °C) -3.73 ± 0.37; (37 °C) -2.06 ± 0.27.
On to UGGGAGCAAUAUUACGUUUA, for which the “self-splicing fitness (ln)” value is, setting by setting: (30 °C) -2.62 ± 0.29; (37 °C) -2.92 ± 0.33.
The like results for UGGUAGCAAUAUUACGACCU were, in that order, -0.697 ± 0.13 and 0.261 ± 0.14.
The corresponding values for UGGUAGCAAUAUUACGACGU are -0.945 ± 0.12 and -0.0819 ± 0.16.
The corresponding values for UGGUAGCAAUAUUACGAGCA are -0.502 ± 0.15 and -0.131 ± 0.21.
Turning to UGGUAGCAAUAUUACGAGCC, the “self-splicing fitness (ln)” value reads like this: (30 °C) -2.3 ± 0.32; (37 °C) -1.91 ± 0.26.
The like results for UGGUAGCAAUAUUACGAGCG were, in that order, -0.4 ± 0.053 and -0.521 ± 0.081.
The like results for UGGUAGCAAUAUUACGAUGU were, in that order, -3.19 ± 0.19 and -2.12 ± 0.26.
The like results for UGGUAGCAAUAUUACGAUUC were, in that order, -2.63 ± 0.24 and -2.05 ± 0.26.
Consider UGGUAGCAAUAUUACGCACG, for which the “self-splicing fitness (ln)” value (30 °C) was -0.419 ± 0.17.
Consider UGGUAGCAAUAUUACGCCUG, for which the “self-splicing fitness (ln)” value by setting is: (30 °C) 0.0915 ± 0.14; (37 °C) 0.675 ± 0.2.
UGGUAGCAAUAUUACGCGAG: the “self-splicing fitness (ln)” value by setting is: (30 °C) -1.29 ± 0.17; (37 °C) -2.17 ± 0.24.
The like results for UGGUAGCAAUAUUACGCGCA were, in that order, -0.453 ± 0.1 and 0.351 ± 0.11.
